These results are taken from US20250206828A1, “ANTI-ADENOSINE RECEPTOR (A2aR) ANTIBODIES AND THE USE THEREOF” (Adept Therapeutics Inc., priority 2022, published 2025).

Read-outs that look alike come from different tables or passages of the source.

Assay [1] deals with T1, human adenosine A2A receptor (A2aR) (human, UniProt P29274 1-412).
T1 construct: Assays used HEK293 cells stably overexpressing human A2aR (BPS Bioscience 79381), human A2aR-expressing CHO cells, or endogenous A2aR on human PBMC; also called human A2aR; hA2aR
Kind of assay: flow cytometry, HEK293-hA2aR cells, supernatant 1 ug/ml. A general note: In flow cytometry, cells or beads pass a laser one at a time.

Assay [2] has as its target T1, human adenosine A2A receptor (A2aR). The description is as above. This is another data set of the same source.

T1 sequence (P29274 whole entry): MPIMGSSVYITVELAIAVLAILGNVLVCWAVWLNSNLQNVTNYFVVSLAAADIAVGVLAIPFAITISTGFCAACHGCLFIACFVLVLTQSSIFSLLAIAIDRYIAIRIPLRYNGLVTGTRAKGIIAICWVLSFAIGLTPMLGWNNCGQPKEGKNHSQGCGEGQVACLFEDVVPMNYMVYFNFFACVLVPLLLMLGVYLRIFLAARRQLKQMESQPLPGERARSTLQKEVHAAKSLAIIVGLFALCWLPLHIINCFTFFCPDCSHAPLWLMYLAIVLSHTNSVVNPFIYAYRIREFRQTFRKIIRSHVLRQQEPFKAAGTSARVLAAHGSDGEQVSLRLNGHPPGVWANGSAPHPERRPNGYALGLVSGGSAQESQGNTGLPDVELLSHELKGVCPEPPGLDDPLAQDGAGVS

B1: Hu1B5-H1/Hu1B5-L4 (antibody, human IgG1, V domains shown)
VH: QVQLVQSGAEVKKPGASVKVSCKASGFTFTRFWMNWVRQAPGQGLEWMGRIDPYDSETQYNHKFWDRVTMTRDTSTSTVYMELSSLRSEDTAVYYCGRSLYGKGDYWGQGTTVTVSS
VL: DVVMTQSPLSLPVTPGEPASISCRSSQSIVHSNGNTYLEWYLQKPGQSPQLLIYKVSNRFSGVPDRFSGSGSGTDFTLKISRVEAEDVGVYYCFQGSHVPLTFGGGTKVEIK
notes: Human IgG1 FES (L234F, L235E, P331S) and human Ig kappa constant domains
Consider B1, for which, in assay [1], the MFI was found to be 1570 MFI.

B2: Hu3F6-H5/Hu3F6-L7 (antibody, human IgG1, V domains shown)
VH: EVQLVQSGAEVKKPGASVKVSCKTSGFAFTSYWMNWVRQAPGQGLEWIGRIDPSDSEAHYAHKFWGRATLTVDKSSSTVYMELSSLRSEDTAVYYCLRSLYGKGDYWGHGTTVTVSS
VL: DVVMTQTPPSLPVNPGEPASISCRSSQSLVHRNGNTYLEWYLQKPGQSPQLLIYKVSNRFSGVPDRFSGSGSGSDFTLKISWVEAEDVGVYYCYQGSHVPLTFGGGTKVEIK
notes: as for B1
In assay [2], B2 registered an MFI of 1890 MFI.

B3: Hu1B5-H2.1/Hu1B5-L5 (antibody, human IgG1, V domains shown)
VH: EVQLVQSGAEVKKPGASVKVSCKTSGFTFTRFWMNWVRQAPGQGLEWIGRIDPYDSETQYNHKFWDRVTMTVDTSTSTVYMELSSLRSEDTAVYYCGRSLYGKGDYWGQGTTVTVSS
VL: DIVMTQSPDSLAVSLGERATINCRSSQSIVHSNGNTYLEWYQQKPGQPPKLLIYKVSNRFSGVPDRFSGSGSGTDFTLTISSLQAEDVAVYYCFQGSHVPLTFGGGTKVEIK
notes: as for B1
The molecule B3 registered an MFI in assay [1] of 960 MFI.

B4: Hu1B5-H2.1/Hu1B5-L2 (antibody, human IgG1, V domains shown)
VH: EVQLVQSGAEVKKPGASVKVSCKTSGFTFTRFWMNWVRQAPGQGLEWIGRIDPYDSETQYNHKFWDRVTMTVDTSTSTVYMELSSLRSEDTAVYYCGRSLYGKGDYWGQGTTVTVSS
VL: DVVMTQSPLSLPVTLGQPASISCRSSQSIVHSNGNTYLEWYQQRPGQSPRRLIYKVSNRFSGVPDRFSGSGSGTDFTLKISRVEAEDVGVYYCFQGSHVPLTFGGGTKVEIK
notes: as for B1
B4 displayed an MFI in assay [1] of 225 MFI.

B5: Hu1B5-H1/Hu1B5-L1 (antibody, human IgG1, V domains shown)
VH: QVQLVQSGAEVKKPGASVKVSCKASGFTFTRFWMNWVRQAPGQGLEWMGRIDPYDSETQYNHKFWDRVTMTRDTSTSTVYMELSSLRSEDTAVYYCGRSLYGKGDYWGQGTTVTVSS
VL: DVVMTQSPLSLPVTLGQPASISCRSSQSIVHSNGNTYLEWFQQRPGQSPRRLIYKVSNRFSGVPDRFSGSGSGTDFTLKISRVEAEDVGVYYCFQGSHVPLTFGGGTKVEIK
notes: as for B1
For B5, the MFI in assay [1] was 34 MFI.

B6: Hu1B5-H2.1/Hu1B5-L4 (antibody, human IgG1, V domains shown)
VH: EVQLVQSGAEVKKPGASVKVSCKTSGFTFTRFWMNWVRQAPGQGLEWIGRIDPYDSETQYNHKFWDRVTMTVDTSTSTVYMELSSLRSEDTAVYYCGRSLYGKGDYWGQGTTVTVSS
VL: DVVMTQSPLSLPVTPGEPASISCRSSQSIVHSNGNTYLEWYLQKPGQSPQLLIYKVSNRFSGVPDRFSGSGSGTDFTLKISRVEAEDVGVYYCFQGSHVPLTFGGGTKVEIK
notes: as for B1
For the molecule B6, the MFI in assay [1] amounted to 1720 MFI.

B7: Hu1B5-H2/Hu1B5-L4 (antibody, human IgG1, V domains shown)
VH: EVQLVQSGAEVKKPGASVKVSCKTSGFTFTRFWMNWVRQAPGQGLEWMGRIDPYDSETQYNHKFWDRVTMTVDTSTSTVYMELSSLRSEDTAVYYCGRSLYGKGDYWGQGTTVTVSS
VL: DVVMTQSPLSLPVTPGEPASISCRSSQSIVHSNGNTYLEWYLQKPGQSPQLLIYKVSNRFSGVPDRFSGSGSGTDFTLKISRVEAEDVGVYYCFQGSHVPLTFGGGTKVEIK
notes: as for B1
In assay [1], B7 showed an MFI of 1630 MFI.

B8: Hu1B5-H4/Hu1B5-L5 (antibody, human IgG1, V domains shown)
VH: EVQLVQSGAEVKKPGASVKVSCKTSGFTFTRFWMNWVRQAPGQGLEWIGRIDPYDSETQYNHKFWDRATLTVDKSSSTVYMELSSLRSEDTAVYYCGRSLYGKGDYWGQGTTVTVSS
VL: DIVMTQSPDSLAVSLGERATINCRSSQSIVHSNGNTYLEWYQQKPGQPPKLLIYKVSNRFSGVPDRFSGSGSGTDFTLTISSLQAEDVAVYYCFQGSHVPLTFGGGTKVEIK
notes: as for B1
Molecule B8 came in with an MFI in assay [1] of 872 MFI.

B9: Hu1B5-H2/Hu1B5-L5 (antibody, human IgG1, V domains shown)
VH: EVQLVQSGAEVKKPGASVKVSCKTSGFTFTRFWMNWVRQAPGQGLEWMGRIDPYDSETQYNHKFWDRVTMTVDTSTSTVYMELSSLRSEDTAVYYCGRSLYGKGDYWGQGTTVTVSS
VL: DIVMTQSPDSLAVSLGERATINCRSSQSIVHSNGNTYLEWYQQKPGQPPKLLIYKVSNRFSGVPDRFSGSGSGTDFTLTISSLQAEDVAVYYCFQGSHVPLTFGGGTKVEIK
notes: as for B1
B9 came in with an MFI in assay [1] of 728 MFI.

B10: Hu1B5-H5/Hu1B5-L4 (antibody, human IgG1, V domains shown)
VH: EVQLVQSGAEVKKPGASVKVSCKTSGFTFTRFWMNWVRQAPGQGLEWIGRIDPYDSETQYAHKFWDRATLTVDKSSSTVYMELSSLRSEDTAVYYCGRSLYGKGDYWGQGTTVTVSS
VL: DVVMTQSPLSLPVTPGEPASISCRSSQSIVHSNGNTYLEWYLQKPGQSPQLLIYKVSNRFSGVPDRFSGSGSGTDFTLKISRVEAEDVGVYYCFQGSHVPLTFGGGTKVEIK
notes: as for B1
For the molecule B10, in assay [1], the MFI was 1710 MFI.

B11: Hu1B5-H1/Hu1B5-L5 (antibody, human IgG1, V domains shown)
VH: QVQLVQSGAEVKKPGASVKVSCKASGFTFTRFWMNWVRQAPGQGLEWMGRIDPYDSETQYNHKFWDRVTMTRDTSTSTVYMELSSLRSEDTAVYYCGRSLYGKGDYWGQGTTVTVSS
VL: DIVMTQSPDSLAVSLGERATINCRSSQSIVHSNGNTYLEWYQQKPGQPPKLLIYKVSNRFSGVPDRFSGSGSGTDFTLTISSLQAEDVAVYYCFQGSHVPLTFGGGTKVEIK
notes: as for B1
Take B11: the MFI in assay [1] is 481 MFI.

B12: Hu1B5-H4/Hu1B5-L4 (antibody, human IgG1, V domains shown)
VH: EVQLVQSGAEVKKPGASVKVSCKTSGFTFTRFWMNWVRQAPGQGLEWIGRIDPYDSETQYNHKFWDRATLTVDKSSSTVYMELSSLRSEDTAVYYCGRSLYGKGDYWGQGTTVTVSS
VL: DVVMTQSPLSLPVTPGEPASISCRSSQSIVHSNGNTYLEWYLQKPGQSPQLLIYKVSNRFSGVPDRFSGSGSGTDFTLKISRVEAEDVGVYYCFQGSHVPLTFGGGTKVEIK
notes: as for B1
The molecule B12 returned an MFI in assay [1] of 1780 MFI.

B13: Hu1B5-H5/Hu1B5-L5 (antibody, human IgG1, V domains shown)
VH: EVQLVQSGAEVKKPGASVKVSCKTSGFTFTRFWMNWVRQAPGQGLEWIGRIDPYDSETQYAHKFWDRATLTVDKSSSTVYMELSSLRSEDTAVYYCGRSLYGKGDYWGQGTTVTVSS
VL: DIVMTQSPDSLAVSLGERATINCRSSQSIVHSNGNTYLEWYQQKPGQPPKLLIYKVSNRFSGVPDRFSGSGSGTDFTLTISSLQAEDVAVYYCFQGSHVPLTFGGGTKVEIK
notes: as for B1
The molecule B13 returned an MFI in assay [1] of 823 MFI.

B14: Hu1B5-H3/Hu1B5-L5 (antibody, human IgG1, V domains shown)
VH: EVQLVQSGAEVKKPGASVKVSCKTSGFTFTRFWMNWVRQAPGQGLEWIGRIDPYDSETQYNHKFWDRATLTVDTSSSTVYMELSSLRSEDTAVYYCGRSLYGKGDYWGQGTTVTVSS
VL: DIVMTQSPDSLAVSLGERATINCRSSQSIVHSNGNTYLEWYQQKPGQPPKLLIYKVSNRFSGVPDRFSGSGSGTDFTLTISSLQAEDVAVYYCFQGSHVPLTFGGGTKVEIK
notes: as for B1
In assay [1], B14 registered an MFI of 686 MFI.

B15: Hu1B5-H3/Hu1B5-L4 (antibody, human IgG1, V domains shown)
VH: EVQLVQSGAEVKKPGASVKVSCKTSGFTFTRFWMNWVRQAPGQGLEWIGRIDPYDSETQYNHKFWDRATLTVDTSSSTVYMELSSLRSEDTAVYYCGRSLYGKGDYWGQGTTVTVSS
VL: DVVMTQSPLSLPVTPGEPASISCRSSQSIVHSNGNTYLEWYLQKPGQSPQLLIYKVSNRFSGVPDRFSGSGSGTDFTLKISRVEAEDVGVYYCFQGSHVPLTFGGGTKVEIK
notes: as for B1
B15 came in with an MFI in assay [1] of 1550 MFI.
